The values that follow come from patent US20210317231A1 (BYONDIS B V, published 2021).

Substitutions are numbered along the chain they refer to. Where two headings read alike, the source gives them in different places.

Assay [1] deals with T1, human 5T4 oncofoetal antigen (human, UniProt Q13641 32-420).
T1 construct: whole, on cells; also called hu 5T4; human 5T4 antigen
T1 sequence (looked up): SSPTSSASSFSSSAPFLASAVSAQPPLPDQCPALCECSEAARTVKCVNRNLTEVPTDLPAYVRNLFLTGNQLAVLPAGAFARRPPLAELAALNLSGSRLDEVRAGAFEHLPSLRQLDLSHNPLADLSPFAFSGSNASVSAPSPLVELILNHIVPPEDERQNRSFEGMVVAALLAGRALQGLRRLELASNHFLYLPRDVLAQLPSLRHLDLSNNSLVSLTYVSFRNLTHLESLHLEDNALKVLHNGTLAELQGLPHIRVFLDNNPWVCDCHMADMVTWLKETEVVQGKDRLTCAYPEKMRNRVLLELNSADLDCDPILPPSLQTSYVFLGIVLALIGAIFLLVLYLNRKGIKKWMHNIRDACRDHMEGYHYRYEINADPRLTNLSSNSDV
The assay is described as follows: flow cytometry, MDA-MB-468 cells. The method, then: (§1) 17 antibodies were selected and affinity to 5T4 antigen was measured using MDA-MB-468 cells, PA-1 cells and Chinese Hamster Ovary (CHO) mammalian cells expressing human or cyno 5T4 antigen (Table 2). In the current application the utilized CHO cells are referred to as CHOZN as these CHO cells expressing human or cyno 5T4 antigen were obtained using the CHOZN® Platform of Sigma-Aldrich. CHOZN cells (SAFC) were transiently transfected, using an Amaxa nucleofector device (Lonza) according to the manufacturer's instructions. Standard, commercially available mammalian expression vectors (SAFC, Life Technologies) were used, which contained the full length human and cyno 5T4 antigen coding sequence (according to accession number NP 006661.1 and Q4R8Y9 respectively), preceded by a human CMV promoter. Transiently transfected CHOZN cells were cultured according the manufacturer's instructions, before being used in antibody binding studies. The 17 selected antibodies are characterised by the amino acid sequences according to the following table (Table 1).
(§2) MDA-MB-468 cells, PA-1 cells or CHOZN cells expressing human or cyno 5T4 antigen (100,000 cells/well in a 96-well plate) were washed three times with ice-cold FACS buffer (1×PBS (Lonza) containing 0.2% v/w BSA (Sigma-Aldrich, St. Louis, Mo.)) and 0.02% v/w NaN3 (Sigma-Aldrich), followed by the addition of a concentration range of each primary mAb (50 μl/well) diluted in ice-cold FACS buffer. After an incubation of 30 minutes at 4° C., cells were washed three times with ice-cold FACS buffer and 50 μl/well secondary mAb (AffiniPure F(ab′)2 fragment Goat-anti-human IgG-APC, 1:6,000 dilution, Jackson Immuno Research) was added. After 30 minutes at 4° C., cells were washed twice and resuspended in 150 μl FACS buffer. Fluorescence intensities were determined by flow cytometry (BD FACSVerse, Fanklin Lakes, N.J.) and indicated as the median fluorescence intensity (MFI). Curves were fitted by nonlinear regression using the sigmoidal dose-response equation with variable slope (four parameters) in GraphPad Prism (version 5.01/6.01 for Windows, GraphPad, San Diego, Calif.). EC₅₀ values were calculated as the concentration in μg/ml that gives a response half way between bottom and top of the curve, when using a 4 parameter logistic fit.

In assay [2] the target is T2, cynomolgus monkey 5T4 antigen (cynomolgus monkey, UniProt Q4R8Y9 35-420).
T2 construct: whole, on cells; also called cyno 5T4
T2 sequence (looked up): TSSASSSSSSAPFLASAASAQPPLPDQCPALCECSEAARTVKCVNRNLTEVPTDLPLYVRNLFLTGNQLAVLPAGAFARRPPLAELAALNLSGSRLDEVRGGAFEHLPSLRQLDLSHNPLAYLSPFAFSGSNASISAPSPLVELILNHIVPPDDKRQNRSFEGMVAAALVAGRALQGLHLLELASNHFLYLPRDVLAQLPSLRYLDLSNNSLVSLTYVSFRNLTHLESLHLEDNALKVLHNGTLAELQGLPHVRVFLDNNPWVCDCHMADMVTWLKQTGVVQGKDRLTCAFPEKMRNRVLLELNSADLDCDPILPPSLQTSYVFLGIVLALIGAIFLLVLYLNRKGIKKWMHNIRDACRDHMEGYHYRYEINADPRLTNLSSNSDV
The assay is described as follows: flow cytometry, CHOZN cells expressing cyno 5T4. On the procedure:
as §2

The target in assay [3] is T2, cynomolgus monkey 5T4 antigen. The assay is described as follows: flow cytometry, CHOZN cells expressing cyno 5T4. On the procedure:
as §1, §2
This is another data set of the same source. (In general: A flow cytometer gives signals particle by particle.)

The target in assay [4] is T1, human 5T4 oncofoetal antigen. The assay is described as follows: flow cytometry, CHOZN cells expressing hu 5T4. On the procedure:
as §1, §2

Assay [5] has the same target. The assay can be described thus: flow cytometry, PA-1 cells. The method, then: as §1, §2
Assay [6] concerns the target T2, cynomolgus monkey 5T4 antigen. The assay is described as follows: flow cytometry, CHOZN cells expressing cyno 5T4. This is another data set of the same source.
In assay [7] the target is T1, human 5T4 oncofoetal antigen. The assay can be described thus: flow cytometry, CHOZN cells expressing hu 5T4. The source holds these as a separate data set.

B1: chimeric anti-5T4 monoclonal antibody 828 (antibody, human IgG1, V domains shown)
VH: QSVEESGGRLVTPGTPLTLTCTVSEIDLSTYAMSWVRQAPGKGLEWIGIISAGGSAYYASWAKGRFTISRTSTTVDLKMTSLTTEDTATYFCARGAAYAGYTYGFSFFDIWGPGTLVTVSL
VL: DIVMTQTPSSVSAAVGGTVTINCQASQNIYSNLAWYQQKPGQRPKLLIYGASNLESGVPSRFKGSGSGTEYTLTISDLESDDAATYYCQSIDYGNNYLGSFGGGTEVVVK
One may read the EC50 as the concentration needed to bring the measured effect to its halfway point. Turning to B1, the EC50 in assay [1] came to 0.1 µg/mL; in assay [3], 0.82 µg/mL; in assay [4], 0.19 µg/mL; in assay [5], 0.1 µg/mL. Further, the “fold improvement of binding compared to H8 on cyno 5T4” value (from here on “fold improvement of binding”) in assay [2] was found to be 7 fold.

B2: prior art anti-5T4 antibody H8 (H8 humanized variant 1) (antibody, human IgG1, kappa, V domains shown)
VH: QVQLVQSGAEVKKPGASVKVSCKASGYSFTGYYMHWVKQSPGQGLEWIGRINPNNGVTLYNQKFKDRVTMTRDTSISTAYMELSRLRSDDTAVYYCARSTMITNYVMDYWGQGTLVTVSS
VL: DIVMTQSPDSLAVSLGERATINCKASQSVSNDVAWYQQKPGQSPKLLISYTSSRYAGVPDRFSGSGSGTDFTLTISSLQAEDVAVYFCQQDYNSPPTFGGGTKLEIKR
Consider B2, for which the figures for the EC50 in assay [6] and in assay [3] were 1.99 µg/mL and 8.11 µg/mL, respectively.

B3: humanized anti-5T4 antibody 833a with HC-41C mutation (antibody, human IgG1, kappa, V domains shown)
VH: EVQLVESGGGLIQPGGSLRLSCAASGIDLSHYVVGWVRQACGKGLEWVSIIYGSGRTYYANWAKGRFTISKDNSKNTLYVRMNSLRAEDTAVYYCARDASVSVYYWGYFDLWGQGTLVTVSS
VL: AYDMTQSPSSVSASVGDRVTITCQASQSIGSELAWYQQKPGKAPKLLIYRASTLESGVPSRFSGSGSGTDFTLTISSLQPEDFATYYCQQGYTYSEIDNAFGGGTKVEIKR
Consider B3, for which the EC50 in assay [6] turned out to be 0.12 µg/mL; in assay [7] it was 0.22 µg/mL.

B4: humanized anti-5T4 antibody 833b with HC-41C mutation (antibody, human IgG1, kappa, V domains shown)
VH: B3 VH with I12V, K71R, Y79F, V80L, A87V, Y94F
VL: B3 VL
On to B4, for which the EC50 was 0.18 µg/mL in assay [6] and 0.15 µg/mL in assay [7].

B5: chimeric anti-5T4 monoclonal antibody 811 (antibody, human IgG1, V domains shown)
VH: QSVEESGGRLVTPGTSLTLTCTASGFSLSTYAMIWVRQAPGKGLEWIGIINSSGYTYYANWAKGRFTISKTSTTVDLKITSPTTEDTATYFCARGNAGISYDVSFNLWGQGTLVTVSS
VL: AYDMTQTPASVEAGVGGTVTINCQASESISSWLAWYQQKPGQPPNLLIYEASKLASGVPSRFSGSGSGTEFTLTISGVESADAATYYCQQGWTSSNIDNAFGGGTEVVVK
As for B5, the EC50 in assay [1] came out at 0.73 µg/mL; in assay [3], 0.25 µg/mL; in assay [4], 0.34 µg/mL; in assay [5], 0.4 µg/mL. For the same molecule, the “fold improvement of binding” value in assay [2] came to 32 fold.

B6: chimeric anti-5T4 antibody 899 with HC-41C mutation (antibody, human IgG1, V domains shown)
VH: QSVEESGGRLVTPGTPLTLTCTVSGFSLSSYTMSWVRQACGKGLEYIGIISSSDGTWYANWVKGRFTISKTSTTVDLKMTSLTTEDTATYFCARDGTGNKYYTWDRLDLWGQGTLVTVSS
VL: NIVMTQTPSPVSGAVGGTVTINCQASQSIYNELSWYQQKPGQPPKLLIYYASTLASGVSSRFKGSGSGTQFTLTISGVESVDAATYYCQQGYSSSNVDNVFGGGTEVVVK
notes: Human IgG1 constant parts; also called chimeric 899; 899 chimeric
As to B6, the EC50 in assay [6] worked out at 0.18 µg/mL; in assay [7], 0.14 µg/mL.

B7: chimeric anti-5T4 monoclonal antibody 908 (antibody, human IgG1, V domains shown)
VH: QSVEESGGRLVTPGTPLTLTCTVSGFSLSNFAMSWVRQAPGKGLEWIGIINGYGSIYYATWAKGRFTISKTSTTVDLKITSPTTEDTATYFCARGDAGRTYNHYFNIWGPGTLVTVSL
VL: DVVMTQTPASVEAAVGGTVTIKCQASQSISSWLSWYQQKPGQRPKLLIYAASNLASGVPSRFKGSGSGTQFTLTISDLESDDAATYYCQQGYTSYNVDNAFGGGTEVVVK
Turning to B7, the EC50 came out at 0.21 µg/mL in assay [1], 0.24 µg/mL in assay [3], 0.23 µg/mL in assay [4] and 0.04 µg/mL in assay [5]. In assay [2], the “fold improvement of binding” value turned out to be 32 fold.

B8: humanized anti-5T4 antibody 789a with HC-41C mutation (antibody, V domains shown)
VH: EVKVEESGGGLVQPGGSLRLSCAASGFSLSSYWMSWVRQACGKGLEWVSIIAGRGSTYYASWAKGRFTISKDNSEGMVYLQMNSLRAEDTAVYYCARVSSIYYTFNLWGQGTTVTVSS
VL: EIVLTQSPSSLSASVGDRVTITCQSSQSVYSNNELSWYQQKPGKAPKLLIYYASTLASGVPSRFSGSGSGTDFTLTISSLQPEDFATYYCQGSYYSGSGWYYAFGQGTKLEIKR
Take B8: the values for the EC50 in assay [6] and in assay [7] were 0.33 µg/mL and 0.2 µg/mL, respectively.

B9: humanized anti-5T4 antibody 789d with HC-41C mutation (antibody, V domains shown)
VH: QSVEESGGGLVQPGGSLRLSCAASGFSLSSYWMSWVRQACGKGLEWIGIIAGRGSTYYASWAKGRFTISRDNSKNTLYLQMNSLRAEDTAVYYCARVSSIYYTFNLWGQGTLVTVSS
VL: B8 VL with E1A, I2Q, Q106G, L110V
B9: the EC50 in assay [6] is 0.15 µg/mL; in assay [7], 0.12 µg/mL.

B10: humanized anti-5T4 antibody 789b with HC-41C mutation (antibody, V domains shown)
VH: EVQLLESGGSLVLPGGSLRLSCAASGFSLSSYWMSWVRQACGKGLEWVSIIAGRGSTYYASWAKGRFTISRDNSKNTLYMQMNSLRAEDTALYFCARVSSIYYTFNLWGQGTLVTVSS
VL: B8 VL
For B10, the EC50 in assay [6] is 0.24 µg/mL; in assay [7], 0.15 µg/mL.

B11: chimeric anti-5T4 monoclonal antibody 829 (antibody, human IgG1, V domains shown)
VH: QSLEESGGRLVTPGTPLTLTCTASGFSLSSYDMSWVRQAPGKGLEYIGWINSDDGAYYANWAKGRFTISRTSTTVDLKITSPTTEDTATYFCARDAGSTYLYGLDPWGPGTLVTVSS
VL: DVVMTQTPSSVSAGVGGTVTIKCQASQSISSYLAWYQQKPGQRPKLLIYAASTLASGVSSRFKGSGSGTEYTLTINDLESADAATYYCQCTYYGGTYNTFGGGTEVVVK
Take B11: the EC50 was found to be 0.17 µg/mL in assay [1], 0.22 µg/mL in assay [3], 0.24 µg/mL in assay [4] and 0.07 µg/mL in assay [5]. In assay [2], the “fold improvement of binding” value came to 32 fold.

B12: chimeric anti-5T4 monoclonal antibody 847 (antibody, human IgG1, V domains shown)
VH: QSVEESGGRLVTPGTPLTLTCTVSGFSLSSYDMSWVRQAPGKGLEYIGYINSDGSAYYASWAKGRFTISKTSSTTVDLKITSPTTEDTATYFCARDAGSTYLYGMDPWGPGTLVTVSS
VL: B11 VL with S9A, A13E, G14P, K22N, S30Y, E70Q, Y71F, N76S, Y97F
Turning to B12, the EC50 in assay [1] came to 0.2 µg/mL; in assay [3] it was 0.2 µg/mL; in assay [4] it was 0.22 µg/mL; in assay [5], 0.22 µg/mL. The “fold improvement of binding” value in assay [2] stood at 32 fold.

B13: humanized anti-5T4 antibody 789c with HC-41C mutation (antibody, V domains shown)
VH: B9 VH
VL: DIVMTQSPDSLAVSLGERATINCQSSQSVYSNNELSWYQQKPGQPPKLLIYYASTLASGVPDRFSGSGSGTDFTLTISSLQAEDVAVYYCQGSYYSGSGWYYAFGGGTKLEIKR
Turning to B13, the EC50 in assay [6] was found to be 0.21 µg/mL; in assay [7], 0.2 µg/mL.
